Laboratory results taken from article PMC6121587, “In Vitro Inhibitory Mechanism Effect of TRAIP on the Function of TRAF2 Revealed by Characterization of Interaction Domains” (International Journal of Molecular Sciences, 2018).
Where “and” joins values, the source holds several entries; their conditions need not be identical. Equal entries are not always repeated. One block for each molecule: values may come before it.

B3: TRAIP RING domain plus coiled-coil domain (TRAIP RING-CC, residues 1-157) (domain or fragment, human, UniProt Q9BWF2 1-157, looked up)
chain: MPIRALCTICSDFFDHSRDVAAIHCGHTFHLQCLIQWFETAPSRTCPQCRIQVGKRTIINKLFFDLAQEEENVLDAEFLKNELDNVRAQLSQKDKEKRDSQVIIDTLRDTLEERNATVVSLQQALGKAEMLCSTLKKQMKYLEQQQDETKQAQEEAR
notes: Exists in different forms and higher-order oligomers; calculated monomer mass with the tag 18,893 Da; not shown: His6, C-terminal, kept

Assays:
[1] = biological target: TRAF2 TRAF domain (TRAF-N and TRAF-C) (human); assay: SEC; single purified protein on Superdex 200 10/30, 20 mM Tris-HCl pH 8.0, 150 mM NaCl
[2] = biological target: TRAF4 TRAF domain (TRAF-N and TRAF-C) (human); assay: as above
[3] = biological target: the molecule itself; assay: AUC; sedimentation velocity, 20 °C, 2 mg/mL, 20 mM Tris-HCl pH 8.0, 150 mM NaCl, 45,000 rpm, 280 nm, SEDFIT c(s); the paper calls the TRAIP CC concentration low
[4] = biological target: the molecule itself; assay: SEC + SEC-MALS; TRAIP CC alone, high concentration; Superdex 200 10/30; MALS on mini-DAWN treos
[5] = biological target: the molecule itself; assay: SEC; single purified protein on Superdex 200 10/30, 20 mM Tris-HCl pH 8.0, 150 mM NaCl
[6] = biological target: B3; assay: native gel or EMSA; Native PAGE shift assay of mixtures of two purified proteins, Phast System, 8-25% gradient gel, Coomassie; conditions: both partners purified

- stoichiometry N [1]: 3
Molecule: TRAF2 TRAF domain (TRAF-N and TRAF-C) (domain or fragment)

- stoichiometry N [2]: 3
Molecule: TRAF4 TRAF domain (TRAF-N and TRAF-C) (domain or fragment)

B1: TRAIP coiled-coil domain (TRAIP CC, residues 72-167) (domain or fragment, human, UniProt Q9BWF2 72-167, looked up)
chain: NVLDAEFLKNELDNVRAQLSQKDKEKRDSQVIIDTLRDTLEERNATVVSLQQALGKAEMLCSTLKKQMKYLEQQQDETKQAQEEARRLRSKMKTME
notes: Trimer by SEC and MALS at high concentration, dimer by AUC at low concentration; calculated monomer mass with the tag 12,425 Da; not shown: His6, C-terminal, kept
- stoichiometry N [3]: 2
- stoichiometry N [4]: 3

B2: TRAF1 TRAF-N coiled-coil domain (amino acids 181-244) (domain or fragment, UniProt Q13077 181-244, looked up)
chain: FMKEKLLAELEGKLRVFENIVAVLNKEVEASHLALATSIHQSQLDRERILSLEQRVVELQQTLA
notes: TNF receptor-associated factor 1 (TRAF1), TRAF-N coiled-coil domain, amino acids 181-244; also called TRAF1 TRAF-N CC
- stoichiometry N [5]: 3

Molecule: B3
- binding result [5]: binds

- binding result [6]: binds
B4: TRAF2 TRAF-N coiled-coil domain (amino acids 264-329) (domain or fragment, human, UniProt Q12933 264-329, looked up)
chain: AGSELLQRCESLEKKTATFENIVCVLNREVERVAMTAEACSRQHRLDQDKIEALSSKVQQLERSIG
notes: TNF receptor-associated factor 2 (TRAF2), human, TRAF-N coiled-coil domain, amino acids 264-329; Trimer by SEC; dimer and possible trimer by AUC. 'Human' is said of the TRAF2 TRAF domain in the same methods paragraph, not of this construct itself; also called TRAF2 TRAF-N CC; TRAF2 CC
- stoichiometry N [3]: 2 and 3
